Measured values taken from the RNAGym collection of RNA variant scans (doi:10.1073/pnas.2313332121).

B1: TPR t1 (parent)
chain: GACCAAUCUGCCCUCAGAGCUCGAGAACAUCUUCGGAUGCAGAGGAGGCAGGCUUCGGUGGCGCGAUAGCGCCAACGUCCUCAACCUCCAAUGCAUCCCACCACAUGAUGAUGCCUGAAGAGCCUUGGUUUUUUG

Variants of: B1
Test: polymerase ribozyme fitness, log enrichment relative to wild type (log ratio); higher = more active; in vitro selection for triplet polymerase activity
Procedure, shortened: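 One round of in vitro selection, in triplicate, was applied to PCR-built, transcribed mutant libraries of each subunit of a heterodimeric triplet polymerase ribozyme. The steps were annealing with a biotinylated primer, partner subunit and triplets, incubation frozen at −7 °C, gel excision of extended constructs, streptavidin-bead capture and RT-PCR. Fitness is the logarithm, base 2, of genotype enrichment over wild-type enrichment from inverse-variance-weighted replicate averages of Illumina-sequenced inputs and outputs, keeping genotypes with ≥10 input reads and ≥1 read per output.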

| Variant | polymerase ribozyme fitness (log ratio) |
| --- | --- |
| GACCAAUCGGCCCUCAGAGCUCGAGAACAUCUUCGGAUGCAGAGGAGGCAGGCUUCGGUGGCGCGAUAGCGCCAACGUCCUCAACCUCCAAUGCAUCCCAUCACAUGAUGAUGCCUGAAGAGCCUUGGUUUUUUG [U9G C101U] | 0.459 |
| GACCAAUCGGCCCUCAGAGCUCGAGAACAUCUUCGGAUGCAGAGGAGGCAGGCUUCGGUGGCGCGAUAGCGCCAACGUCCUCAACCUCCAAUGCAUGCCACCAUAUGAUGAUGCCUGAAGAGCCUUGGUUUUUUG [U9G C97G C104U] | -2.99 |
| GACCAAUCGGCCCUCAGAGCUCAAGAACAUUUUCGGAAGCAGAGGAGGCAGGCUUCGGUGGCGCGAUAGCGCCAACGUCCUCAACCUCCAAUGCAUCCCACCAAAUGAUGAAGCCUGAAGCGCCUGGGUUUUUUG [U9G G23A C31U U38A C104A U112A A121C U126G] | -6.73 |
| GACCAAUCGGCCCUCAGAGCUCAAGAACAUCUUCGGAUGCAGAGGAGGCAGGCUUCGGUGGCGCGAUAGCGCCAACGUCCUCAACCUCCAAUGCAUCCCACCACAUGAUGAUGCCUGAAGAGCCUUGGUUUUUUG [U9G G23A] | -5.2 |
| GACCAAUCGUCCCUCAGAGCUCGAGAACAUCUUCGGAUGCAGAGGAGGCAGGCUUCGGUGGCGCGAUAGGGCCAACGUCCUCAACCUCCAAUGCAUCCCACCACAUGAGGAUGCCUGAAGAGCCUUGGUUUUUUG [U9G G10U C70G U109G] | -6.73 |
| GACCAAUCGGCCCUCAGAGCUCUAGAACAUCUUCGGAUGCAGUGGAGGCAGGCUUCGGUGGCGCGAUAGCACCAACGUCCUCAACCUCCAAUGCAUCCCACCACAUGAUCAUGCCUGAAGAGCGUGGGUUUUUUG [U9G G23U A43U G71A G110C C124G U126G] | -8.22 |
| GACCAAUCGGCCCUCAGAGCUCGAGAACAUCUUCGAAUGCAGAGGAGGCAGGCUUCGGUGGCGCGAUAGCGCCAACGUCCUCAACCCCCAAUGCAUCCUACCACAUGAUGAUGCCUGAAGAGCCUUGGUUUUUUG [U9G G36A U87C C99U] | -3.41 |
| GACCAAUCGGCCCUCAGACCUCGAGAACAUCUUCGGAUGCAGAGGAGGCAGGCUUAGGUGGCGCGAUACCGCCAACGUCCUCAACCUCCAAUGCAUCCCACCACAUGAUGAUGCCUGAAGAGCCUUGGUUUUUUG [U9G G19C C56A G69C] | -6.2 |
| GACCAAUCGGCCCUCAGAGCUCAAGAACAUCUUCGGAUGCAGAGGAGGCAGGCUUCGGUAGCGCGAUAGCCCCAACGUCCUCAACCUCCAAUGCAUCCCACCACAUGAUGAUUCCUGAAGAGCCUUGGUUUUUUC [U9G G23A G60A G71C G113U G135C] | -5.28 |
| GACCAAUCGGCCCUCACAGCUCGAGGACAUCUUCGGAUGCAGAGGAGGCAGGCUUCGGUGGCGCGAUAGCGCCAACGUCCUCAACCUCCAAUGCAUCCCACCACAUGAUGAUGCCUGAAGAGCCUUGGUUUUUUG [U9G G17C A26G] | -3.96 |
| GACCAAUCGGCCCUCAGAGCUCGAGAACAUCUUCGGAUGCAGAGGAGGCAGGCUUCGGUGGCGCGAUAGCGCCAACGUCCUCAACCUCCAAUGCAUCUCACCACAUGAUGAUGCCUGAAGAGCCUUGGUUUUUUG [U9G C98U] | -0.308 |
| GACCAAUCGGCCCUCAGAGCUCGAGAACAUCUUCGGAUGCAGAGGAGGCAGGCUUCGGUGGCGCGAUAGCGCCAACGUCCUCAACCUCCAAUGCAUCACACCACAUGAUGAUGCCUGAAGAGCCUUGGUUUUUUG [U9G C98A] | -5.08 |
| GACCAAUCGGCCCUCAGAGCUCGAGAACAUCUUCGGAUGCAGAGGAGGCAGGCUUCGGUGGCGCGAUAGCGCCAACGUCCUCAACCUCCAAUGCAUCCCACUACAUGAUGAUGCCUGAAGAGCCUUGGUUUUUUG [U9G C102U] | -1.48 |
| GACCAAUCGGCCCUCAGAGCUCGAGAACAUCUUCGCAUGCAGAGGAGGCAGGCUUCGGUGGCGCGAUAUCGCCAACGUCCUCAACCUCCAAUGCAUCCCACCCUAUGAUGAUGCCUGAAGAGCCUUGGUUUUUUG [U9G G36C G69U A103C C104U] | -2.45 |
| GACCAAUCGCCCCUCAGAGCUCGAGAACUUCUUCGGAUGCAUGGGCGGCAGGCUUCGGUGGCGCGAUAGCGCCAACGUCCUCAACCUCCAAUGUAUCCCACCACAUGAUGAUGCCUGAAGAGCCUUGGUUUUUUG [U9G G10C A29U G42U A43G A46C C94U] | -4.04 |
| GACCAAUCGGCCCUCAAUGCUCGAGAACAUCUUCGGAUGCAGAGGUGGCAGGCUUCGGUGGCGCGAUAGCGCAAACGUCCUCAGCCACCAAUGCAUCCCACCACAUGAUGACGCCUGAAGAGCCUUCGUUUUUAG [U9G G17A A18U A46U C73A A84G U87A U112C G127C U134A] | -3.68 |
| GACCAAUCGGCCCUCAGAUCUCGAGAACAUCUUCGGAUGCAGAAGAGGCAGGCUUCGCUGGCGCGAUAGCGCCAACGUCCUCAACCUCCAAUGCAUCCCACCACAUGAUGAUGCCUGAAGAGCCUUGGUUUUUUG [U9G G19U G44A G58C] | -3.46 |
| GACCAAUCGGCCCUCAGAACUCGAGAACAUCUUCGGAUGCAGAGGAGGCAGGCUUCGGUGGCGCGAUAGCGCCAACGUCCUCAACCUCCAAUGCAUCCCACCACAUGAUCACGCCUGAAGAGGGUUGGUUUUUUG [U9G G19A G110C U112C C123G C124G] | -7.8 |
| GACCAAUCGGCCCUCAGAGCUCGAGAACAUCUUCGGAUGCAGAGGAGGCAGGCUUCGGUGGCGCGAUAGCGCCAACGUCCUCAACCUCCAAUGCAUCCCACCACAUGAUGAUGCUUGAAGAGCCUUGGUUUUUUG [U9G C115U] | -0.945 |
| GACCAAUCGGCCCUCAGAGCUCGAGAACAUCUUCGAAUGCAGAGGAGGCAGGCUUCGGUGGCGCGAUAGUGCCAACGUCCUCAACCUCCAAUGCAUCCCACCACAUGAUGAUGCCUGAAGAGCCUUGGUUUUUUG [U9G G36A C70U] | -0.939 |
| GACCAAUCGGCCCUCAGAGCUCGAGAACAUCUUCGAAUGCAGAGGAGGCAGGCUUCGGUGGCGCGAUAGCGCCAACGUCCUCAACCUCCAAUGCAUCCCACCACAUGAUGAUGCCUGAAGAGCCUUGGUUUUUUG [U9G G36A] | -0.196 |
